Measured values reported in article PMC9486808.
Read-outs that look alike come from different tables or passages of the source.

Tests used:
Assay in all cases: fluorescence polarisation
[1] = target: L4-FAM: Cyclo(Ac-…)pa[…]-NH2
[2] = target: S3-FAM: Cyclo(Ac-y…)pa[…]-NH2
[3] = target: L2-FAM: Cyclo(Ac-…)LFAApa[…]-NH2
[4] = target: S5-FAM: Cyclo(Ac-y…)pa[…]-NH2
[5] = target: L4-FAM: Cyclo(Ac-…)pa[…]-NH2; remark: listed apart in the source
[6] = target: S3-FAM: Cyclo(Ac-y…)pa[…]-NH2; remark: listed apart in the source
[7] = target: S5-FAM: Cyclo(Ac-y…)pa[…]-NH2; remark: listed apart in the source

Substance: Recombinant soluble trimeric H1 HA ectodomain of A/California/04/2009 (H1N1), fused to GCN4 trimeriz (domain or fragment)
- Kd [1]: 1.1 nM
- Kd [2]: 1.3 nM
- Kd [3]: 2.4 nM
- Kd [4]: 1 nM
- Kd [5]: 0.6 nM
- Kd [6]: 0.8 nM
- Kd [7]: 0.6 nM
